Literature values in PMC12073169.

Target: ATG3 (Homo sapiens) (UniProt Q9NT62)
UniProt Q9NT62, sequence (Q9NT62 whole entry): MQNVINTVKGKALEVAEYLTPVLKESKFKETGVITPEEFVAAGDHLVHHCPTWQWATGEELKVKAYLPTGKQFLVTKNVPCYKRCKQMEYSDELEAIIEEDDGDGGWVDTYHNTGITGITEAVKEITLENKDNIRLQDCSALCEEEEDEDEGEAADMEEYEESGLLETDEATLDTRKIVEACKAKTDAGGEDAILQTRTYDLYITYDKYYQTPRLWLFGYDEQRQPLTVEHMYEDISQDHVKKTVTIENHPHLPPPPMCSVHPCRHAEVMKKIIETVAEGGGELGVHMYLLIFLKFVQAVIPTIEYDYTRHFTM

ATG7 (from UniProt O95352)
Kd: 0.35 µM
